Data reported in patent US12559749B2, “Methods of rescuing stop codons via genetic reassignment with ACE-tRNA” (UNIVERSITY OF IOWA RESEARCH FOUNDATION, priority 2017, dated 2026).

What was measured:
CFTR G542X = assay: Two-electrode voltage clamp of CFTR Cl- current in Xenopus oocytes, G542X; assay type: cell-based
Description: FIGS. 20A-20D. Delivery of ACE-tRNA as small RNA supports robust suppression of G542X and W1282X nonsense mutations. FIG. 20A) CFTR cRNA with G542X or W1282X cystic fibrosis causing nonsense mutations was co-injected in Xenopus oocytes with serial dilutions of pre-folded ACE-tRNAGly and ACE-tRNATrp, respectively. Two-electrode voltage-clamp recordings of CFTR Cl— current were performed after 36 hrs. Current-voltage relationships illustrate that increasing amounts of FIG. 20B) ACE-tRNATrp and FIG. 20C) ACE-tRNAGly pre-folded RNA results in increased CFTR function (measured CFTR Cl— currents) with WT CFTR achieved in ACE-tRNAGly experiments. FIG. 20D) Dose response of G542X ACE-tRNAGly (filled circles) and W1282X ACE-tRNATrp (open squares) rescue (CFTR Cl— currents elicited at +40 mV were normalized to WT CFTR Cl— currents at +40 mV).
In vitro cRNA transcription. G5-42XUGA, W1282XUGA, and WT CFTR pGEMHE (Mense et al., 2006; PMID:1703051) plasmids were linearized by 10× excess of NheI-HF restriction enzyme (site positioned 3′ of coding region)(New England BioLabs, USA) for 3 hrs at 37° C. and purified using standard cDNA precipitation methods. All cRNAs were transcribed using the mMessage mMachine T7 Kit (ThermoFisher Scientific, USA). Purification of the cRNA from the transcription reaction was conducted on columns from the RNeasy Mini Kit (Qiagen, Germany). Concentration was determined by absorbance measurements at 260 nm and quality was confirmed on a 1% agarose gel (RNase-free). All cRNA was queued to 1 μg/ml before use and all results were generated from ≥2:2 cRNA preparations.
Expression in Xenopus laevis oocytes. Xenopus laevis oocytes (stage V and VI) were purchased from Ecocyte (Austin, TX). […]
Two-electrode voltage clamp ([…]) recordings. CFTR Cl^− currents were recorded in ND96 bath solution that contained (in mM): 96 NaCl, 2 KCl, 1 MgCl2, and 5 HEPES (pH 7.5) in the presence of a maximal CFTR activation cocktail, forskolin (10 μM; adenylate cyclase activator) and 3-isobutyl-1-methylxanthine (1 mM; phosphodiesterase inhibitor). […]

NanoLuc-TGA, TAA or TAG = assay type: cell-based, human; details: transiently transfected HEK293 cells; listed as Glychr19.t2

B1: Glychr19.trna2: top performing glycine ACE-tRNA UGA, SEQ ID NO: 53 (nucleic acid)
chain: GCGUUGGUGGUAUAGUGGUUAGCAUAGCUGCCUUCAAAGCAGUUGACCCGGGUUCGAUUCCCGGCCAACGCA
modifications: chemistry not given here
In the case of B1, the Hill coefficient (CFTR G542X; dose response of G542X rescue) is reported as roughly 1.4, the “level of CFTR function reached” value (CFTR G542X; normalized to WT CFTR Cl- currents) is reported as “clear saturation at WT CFTR levels” and the “EC50 of CFTR Cl- current rescue” value (CFTR G542X; pre-folded ACE-tRNA RNA per oocyte, 36 hrs, currents at +40 mV normalized to WT CFTR) is reported as roughly 20 ng. The “stop codon selectivity (UGA over UAA and UAG)” value (NanoLuc-TGA, TAA or TAG) was “selectively suppresses the UGA stop codon”.
